# Laboratory results reported in a protein production outcome set (Wang et al. 2014).
# Assay: label from the status in PepcDB records
row,Sequence,protein production
1,MEILKKTGKFLLGVVIGVAIMMFADRYYVKGKRLIADNLPKEPVEYVNPYMGNISHLLVPTYPTVHLPNSMLRVYPERGDFTGDRLGGLPLIVTSHRGSSAFNLSPYQGDEAGLKPVIQYSYDREKIVPYRYQVYLDEANIEVDYAPSHQSAVYSLTFEKDGPAYLVFNSRNGELKCDGNTVSGFQYVDKKTKVYLYAETDKTPEKSGVLASGTVKYGKSSVEGKDAALTLAFSGQKEIGVRYGISFISTEQARKNLEREINSYDVSAIARIGRNEWNDALGKIQVSGGSENDKTVFYTSLYRCYERPVNLSEDGKYYSAFDGKIHEDGGRSFYTDDWIWDTYRATHPLRILIDKERETDIINSYLLMAQQMGTNWMPTFPEVTGDSRRMNSNHAVATVIDAWRKGVRGFDLEKAYEAARKGIEEKTLIPWSAAPSGWLDEFYKEHGYIPALKPGEKETVADVSPWEKRQPVAVTLGTAYDEWCLSQIAAELGKKEDAEYFLARSYNYRNLFNPETRFFHPKDKDGKFIEGVDYRYSGGLGARDYYDENNGYIYRWDVQHNIGDLVSLIGGNEVFTAALDSMFDTPLGMSKWQFYSFLPDHTGNVGMFSMANEPSLHIPYLYNYAGQPWKTQKRIRVLLDQWFRNDLMGVPGDEDGGGMSAFVVFSMMGFYPVTPGSPTYNIGSPVFSDVKIDLGGGNVFEIVADGASHDNKYVQSATLNGEELSGPWFDHSRITAGGVLSLKMGPKANKKWGIGNPPPSVGPMQK,failed
2,MEILVVAVGILVDRLTKIWALDKLKKVQDIPIIKNFFDLTYVENRGAAWGIFSGKTLVLSAVTLLVLSAIIVYMIKYRPKSKLARISLSLVISGALGNLYDRVFYKYVVDLFSLHYKDIYYYPVFNVADICVVVGTIMIAIFIVLKDDKKDGKV,failed
3,MEIQEMAKRFSPEFKQQAIDYALSNSHEPIATIAQKLGVGYSTLDKWIREANPVGSSKRQLSPEQQRILELEKEVKQLREANDILKKAHVYFLTDHAKKSTR,failed
4,MEISCLLNEIKASIRYENQIVHIEETPARDACYAPLELEVRIKAALSGTGIEALYSHQAEAIEKVREGKDLVLCTSTASGKSLTYMIPVFEAVLKDPEATSLYISPLNALVNDQLKAFLEFEGALNSGAGIARYTGALSADQKRKIRDGKTNIVFTNPEMVHMSFLAWHHLWRRFFSNLRFIVVDESHYYRGVIGSNMANVLRRLLRVAEYYGASPQFICCSATIGNPEDHTETLLGREAVVVENNGSLQGPQKFVFWNPPLYMNGRGCTVRRSSFSEASALFTRAVQAGLQTLAFTRSRQGVERMYRTCMELLRDRELPSAICPYRSGYFDREREEIERKMNSGELRGVISTNALELGIDIGGLDVCILDGYPGTVMSARQQAGRAGRSGNESLVLMVAGTNALDQYYMRNPADFFARSSENAVLNPKNPYILAGHLLCAAKEIPLRESDEKYFGGGYSRVVELLEAEGLLAGSDMKYSTDPFPYKQVSLRGIDNNTYSLLAFEGERSFPIEKDIEETLAFRECHPGAVYIHRGESFYINRIDHEKREIHAIKTHDSYYTKPMIDSSVVVQETYAAKPLLHAPEVEVGLGEVEVTDRIAGYRKIRTHSDETMSAHEIEMPPITLQTVALWLKLPDRLQEMIGDHKLDFAGGIHAVEHAIISMYPLHLLVDRSDVGGVSTPSHPDLGSKSGIFIYDGHRGGVGYAEKGYDLIEEVLEGTLKAIESCPCESGCPGCIQSPKCGNNNEPLDKHAAIMLLHELLGKAPYIPPEKKEKHLSEARARKTIPQERKSSGDALDRVRRQLRRENINQEPQAGKEKKEKTFIATDENGGMIGVVSAPTPEKAAAKTFHKKLAGQQGATKEKPLEIRIRDLGAGSDYHFRAWTELFEAAENGDPESKEKKAVKKLFIRKMS,failed
5,MEISTKTLHFIEEHREDDTRTLALQSKKYPDVDMAAAVTQIAGRQVAARKIPSWYPVSALWYPPHLSMEQCSSEATALYKASLLEGDTFADLTGGFGIDCSFISRNFKQADYVERQSGLCELALHNFPLLGLGHIRIHNRDGISYLQEMLPVDCLFLDPARRDGHGGKTVAISDCEPDVTVLEPLLVDKAKKVMVKLSPMLDLSLALNELKTVRAVHIVAVNNECKELLLILQKESVSSEVSIHCEHIAGNGESRHYTFTLKQEKTSPCLLADEVGTYLYEPNAAILKAGAFRSLTQTYPVAKLHLNSHLYTSVSLVPDFPGRRFRVEAVSGFGKKELKAFLMDMDKANITIRNFPLSVAELRKRLKLKEGGDDYIFATTLSGGQKVLIRGKKC,not failed
6,MEITDVRLRRVETDGRMKAISSITIDGEFVIHDIRVIDGNEGLFVAMPSKRTPDGEFRDIAHPINSGTRAKIQEAVLAAYEVADEPAVNEESSADESVVEEN,failed
7,MEKCDFYHIIVLSLNFPGYLKMEYGSTKMEERLSRSPGGKLALWAFYTWCGYFVWAMARYIWVMSRIPDAPVSGFESDLGSTAGKWLGALVGFLFMALVGALLGSIAWYTRPRPARSRRYE,failed
8,MEKCSRETLLFIFITISSVATSTSTWMPMDGNYGASYCLSWRLAVETNNVRAWRIVPLQCLRYVEVYMLAGQYDRDVQLTVDQIKVYLNEIILPGDGMDAWILDVDDTCFSNVFYYRLKRYGCDPYDPTGFRTWAMKGESPAIQPVLELFYKLIETGFKVFLVTGRDEETLRQATLENLHNQGFTGYERLIMRTADNKRQSATTYKTRIRKEMMEEGYRIWGNVGDQWSDLQGEYSGDRTFKIPNPMYFVP,failed
9,MEKESQTIFDKNVIEFVTVAAEFCAFLERAESMKRSTFVDTSLKILPLLYLKASMLPKCETIGDEAPETYVTEEIYEILRINLAGLMGDKDDYLDVFVQDMVYSDQPIKKSISEDLADIYQDIKDFIFVFQLGLNETMNDSLAICQENFGMLWGQKLVNTLRALHDVKYNLQDNEEEEENNEEGFYEPSEDDSCCEEGGCHCHDDECHCHEGSCHCHDDEK,failed
10,MEKIIVRGGKRLNGTVRVEGAKNAVLPIIAAALLASDGKNVLSEVPVLSDVYTINEVLRHLNAEVVFENNQVTIDASKELNIEAPFEYVRKMRASVQVMGPLLARNGRARIALPGGCAIGSRPIDQHLKGFEAMGAKVQVGNGFVEAYVEGELKGAKIYLDFPSVGATENIMSAATLAKGTTILENAAKEPEIVDLANFLNAMGAKVRGAGTGTIRIEGVDKLYGANHSIIPDRIEAGTFMVAAAITGGDILIENAVPEHLRSITAKMEEMGVKIIEENEGVRVIGPDKLKAVDIKTMPHPGFPTDMQSQMMALLLQADGTSMITETVFENRFMHVEEFRRMNADIKIEGRSVIMNGPNSLQGAEVGATDLRAAAALILAGLVSEGYTRVTELKHLDRGYVDFHKKLAALGATIERVNEKVEEVKEQEVSDLHA,not failed
11,MEKIRQPTHAGSWYTDNPTKLSSDLEEWLNATGLTKSPDVRGVIAPHAGYSYSGRAAAYAFANIDPTNISRIFLLGPSHHFYTPKCALSTATVYKTPIGNLPVDVEMIKEIRAMGKFGMMDLRVDEAEHSMEMHLPYLAKVFEGNNVKVVPILVGAVSPENEAMYGELLAKYVDDPKNFFSVSSDFCHWGSRFNYMHYDNTHGAIHKSIEALDKKGMDIIETGDPDAFKKYLLEFENTICGRHPISIFLHMLKHSSSKIKINFLRYEQSSQCQTMRDSSVSYASAAAKLET,failed
12,MEKKILKPLRKTVSELLCVICTSLLLISLFSFTALAGDINTSPNINSDDKISASVVSKLTEISGDEQIPVIITLPNQKIAFNTAAGKYQIESEQKNLIKFLENEKSKNKVNKIKPIKIINAVAAKVNPEVLASLAGRSDVSKIELDEVVSIVGQSEPSFKKIAASTTLSTAASTNAWGVDKIDAPAVWQQGINGKGITVAVVDTGIDATHPDLDDLDDNPSTNDPKVVGWVDYINSQSSAYDDNGHGTHVAGIVSGTGDNGIQTGVAPGTKLLVAKVFDSEGDGYLSTCILGFEWAVNNNARIISFSGGSPEHDSLFTTMINKVVAAGVVPVIAAGNDGDGSGTITCPGDELNSLTVGATDSSDAIADFSSRGPVTLDDQTYIKPDISAPGVSIPSTYPGDGYAYGDGTSMAAPHVSGTVALILEKKPTMTPAEVKKELESTAVDLGSAGKDNDYGSGRIDAYDAVFGKGPVANFYAKPTSGKVPLTVAFTDTSTGTPTKWRWNFGDGSKSFLQNPKHKYSKAGTYTVNLTVKNAKGKNTVTKTDYIVVISKPTAAFSASPTSGKAPLTVAFTDKSSGNPTAWKWSFGDGTISREKNPTHQYLQEGKYKITLTVSNAAGKSTTKKINYIKVTTNTRPGIYSESK,failed
13,MEKLEVGQLAPDFRLKNSDGVEISLKDLLHKKVVLYFYPKDNTPGCTLEAKDFSALFSEFEKKNAVVVGISPDNAQSHQKFISQCSLNVILLCDEDKKAANLYKAYGKRMLYGKEHLGIIRSTFIINTQGVLEKCFYNVKAKGHAQKVLESL,failed
14,MEKQPNKLIREKSPYLLQHAWNPVDWHPWGEEAFSRARETGRPIFLSSGYSTCHWCHVMEHESFENAETAALLNRHFVPVKLDREEHPDVDHLYMMFVQATTGRGGWPMSVWMTPDLKPFFGGSYFPATERWGMPSFRSVLEHLANLWEHDRPRLLASAGSIMDQLSGLTRP,failed
15,MEKQSPTALPGTPITDMPAAAETLLALMHAQAEVARLSEREQLFSSLLVSVNAVLWAFDWETQRMIYVSPAYEHIFGRSAGLLLADYSEWRDSIYPDDLNYAERSLSEVIEKGAVEDREYRIIRADGEVRWLSDKCFVSHRADASQRLIVVGIAEDITDKKHLEDELQRLATTDVLTQSSNRRHFFECAQREFELARLNGTPLAFLLLDIDDFKLVNDTYGHQEGDTVLQRIAESGRSALRRGDLFGRIGGEEFAAVFPGCAPEMAMQIAERLQREIQRQNFQANGSTFSITASQGLTNLGPEDQGLEALYGRADAAMYQAKRQGKNQIVLV,failed
16,MEKSAGRGRPSVSVERIVATALEAVDEVGAQAFNMRMLAERLGSGTATLYRHFASKDEILIYVVDSVLGELLADQPEAVELVPQGQGSEGYSWQKACASGAERLYGVLRRHPGILPLLVSQIPIGPNGLKRREQGIALFLANGFPAELAARAYTSVAHYVLGFAIQQHSSASSEAAEGEELVEFFAALDASEYPAIATAGRHLPGISVEEEFRFGLKLIIDGLELAASAWRKADGC,failed
17,MEKTVIYLLEDGYVDFVVEKIRTKMEKLLEEKDKIFVVLAGGRTPLPVYEKLAEQKFPWNRIHFFLSDERYVPLDSDQSNFRNINEVLFSRAKIPSGNVHYVDTSLPIEKACEKYEREIRSATDQFDLAILGMGPDGHVASIFDLETGNKDNLVTFTDPSGDPKVPRVTLTFRALNTSLYVLFLIRGKEKINRLTEILKDTPLPAYFVRGKEKTVWFVGK,not failed
18,MEKVAFIGLGAMGYPMAGHLARRFPTLVWNRTFEKALRHQEEFGSEAVPLERVAEARVIFTCLPTTREVYEVAEALYPYLREGTYWVDATSGEPEASRRLAERLREKGVTYLDAPVSGGTSGAEAGTLTVMLGGPEEAVERVRPFLAYAKKVVHVGPVGAGHAVKAINNALLAVNLWAAGEGLLALVKQGVSAEKALEVINASSGRSNATENLIPQRVLTRAFPKTFALGLLVKDLGIAMGVLDGEKAPSPLLRLAREVYEMAKRELGPDADHVEALRLLERWGGVEIR,not failed
19,MEKYNSLSDFLKEFYIPTYVLSAETEEEEEEESRPTPASPVLVFINSKSGGQLGGELILTYRSLLNHNQVFDLDQETPDKVLRRIYLNLERLKDDDFARQIREKLKIIVAGGDGTAGWLLGVVCDLKLSHPPPIATVPLGTGNNLPFAFGWGKKNPGTDRTAVESFLEQVLKAKVMKIDNWHILMRMKTPKEGGSCDPVAPLELPHSLHAFHRVSPTDELNKEGCHTFRGGFWNYFSLGMDAQISYAFHSERKLHPEKFKNQLVNQSTYVKLGCTQGWFCASLFHPASRNIAQLAKVKIATRNGQWQDLHIPHSIRSIVCLNLPSFSGGLNPWGTPNPRKQRDRGLTPPFVDDGLIEVVGFRNAWHGLVLLAPNGHGTRLAQANRIRFEFHKGATDHTFMRMDGEPWKQPLPLDDETVMVEISHLGQVNMLATHDCRSRSVFDPSTPRHQDGAEDYDDNEDDSVAEGEEFRKFGAADTFKIPDEGEHSNKKGRASRRRNSNVHGWSHVL,not failed
20,MEKYPEIQQMRSKMREGDDTNEFKIRPLKGLSHPSGNLQMQRFQEDRRERIHSIRKRENQDGRLDLIGVVGEITVVIDDVVYEEEKLRKVVFTMKG,not failed
